According to patent US20180057604A1 (Genentech, published 2018):
Residue numbers refer to the chain shown, from its start.

T1: cyno TfR extracellular domain (analogous construct to human TfR ecd) (cynomolgus monkey, UniProt Q5RDH6 87-760 (Pongo abelii entry))
T1 construct: also called cynoTfR ecd
T1 chain: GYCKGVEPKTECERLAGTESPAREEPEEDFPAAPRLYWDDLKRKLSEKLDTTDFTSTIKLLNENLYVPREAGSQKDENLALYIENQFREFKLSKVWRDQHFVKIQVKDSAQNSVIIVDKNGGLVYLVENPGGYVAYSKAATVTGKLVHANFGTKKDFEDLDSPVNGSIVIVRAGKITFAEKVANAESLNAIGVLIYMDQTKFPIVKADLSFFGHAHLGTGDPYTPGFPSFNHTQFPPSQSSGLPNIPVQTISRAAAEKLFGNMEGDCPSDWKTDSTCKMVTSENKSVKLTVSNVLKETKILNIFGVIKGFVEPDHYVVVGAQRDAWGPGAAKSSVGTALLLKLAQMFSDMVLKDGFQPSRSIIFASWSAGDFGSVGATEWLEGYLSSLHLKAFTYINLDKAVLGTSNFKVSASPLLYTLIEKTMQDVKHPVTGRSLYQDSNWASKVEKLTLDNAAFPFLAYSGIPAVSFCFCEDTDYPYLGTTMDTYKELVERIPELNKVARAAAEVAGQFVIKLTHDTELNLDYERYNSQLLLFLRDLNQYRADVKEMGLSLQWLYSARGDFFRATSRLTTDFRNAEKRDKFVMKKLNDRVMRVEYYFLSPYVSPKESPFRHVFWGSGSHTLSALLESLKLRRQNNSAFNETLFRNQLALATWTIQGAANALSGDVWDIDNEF

B1: 5875 (antibody, V domains shown)
VH: EVQLLESGGGLVQPGGSLRLSCAASGFTFSTYAMGWVRQAPGKGLEWVSATSGSGGSTYYADSVKGRFTISRDNSKNTLYLQMNSLRAEDTAVYYCAKGGSQWLYAPGSWFDPWGQGTLVTVSS
VL: EIVLTQSPATLSLSPGERATLSCRASQSVSSYLAWYQQKPGQAPRLLIYDASNRATGIPARFSGSGSGTDFTLTISSLEPEDFAVYYCVQRSNFPWTFGGGTKVEIK
notes: anti-BACE1 IgG
B2: 5876 (antibody, V domains shown)
VH: B1 VH with T31S, Y32R, T58I
VL: B1 VL
notes: anti-BACE1 IgG
B3: 5644 (antibody, V domains shown)
VH: QLQLQESGPGLVKPSETLSLTCTVSGGSISSSSYYWGWIRQPPGKGLEWIGSIYYSGSTYYNPSLKSRVTISVDTSKNQFSLKLSSVTAADTAVYYCARVGHGISYFDLWGRGTLVTVSS
VL: EIVLTQSPATLSLSPGERATLSCRASQSVSSYLAWYQQKPGQAPRLLIYDASKRATGIPARFSGSGSGTDFTLTISSLEPEDFAVYYCQQVYTWPPRTFGGGTKVEIK
notes: anti-BACE1 IgG
B4: 5260 (antibody, V domains shown)
VH: QVQLVQSGAEVKKPGSSVKVSCKASGGTFSSYAISWVRQAPGQGLEWMGSIIPIFGTANYAQKFQGRVTITADESTSTAYMELSSLRSEDTAVYYCARSGGTKYGMLDVWGQGTMVTVSS
VL: EIVMTQSPATLSVSPGERATLSCRASQSVGSNLAWYQQKPGQAPRLLIYGASTRATGIPARFSGSGSGTEFTLTISSLQSEDFAVYYCQQAVVWPPRTFGGGTKVEIK
notes: anti-BACE1 IgG
B5: 5883 (antibody, V domains shown)
VH: B4 VH with S50G, F55G, T57G
VL: B4 VL with G30S, A91L, V92I, V93L
notes: anti-BACE1 IgG
B6: 5572 (antibody, V domains shown)
VH: B4 VH
VL: B4 VL with A91L, V92Y, V93T
notes: anti-BACE1 IgG
B7: 5571 (antibody, V domains shown)
VH: B4 VH with S50N, M115V
VL: B4 VL with G30S, A91L, V92I, V93L
notes: anti-BACE1 IgG
B8: hu7A4.v14 (antibody, V domains shown)
VH: EVQLVQSGAEVKKPGASVKVSCKGSGYTFTDYAMHWVRQAPGQGLEWMGGISTYFGRTNYNQKFKGRVTMTVDTSISTAYMELSRLRSDDTAVYYCARGLSGNYVMDYWGQGTTVTVSS
VL: DIVMTQSPDSLAVSLGERATINCRASESVDSYGNSFMHWYQQKPGQPPKLLIYRASNLESGIPDRFSGSGSGTDFTLTISSLQAEDVAVYYCQQSNEAPPTFGQGTKLEIK
notes: IgG
B9: hu7A4.v13 (antibody, V domains shown)
VH: B8 VH
VL: B8 VL with I62V
notes: IgG
B10: hu7A4.v8 (antibody, V domains shown)
VH: B8 VH
VL: B8 VL with A98G
notes: IgG
B11: hu7A4.v7 (antibody, V domains shown)
VH: B8 VH with G24A
VL: B8 VL with A98G
notes: IgG
B12: hu7A4.v1 (antibody, V domains shown)
VH: B8 VH with G24A, V72R
VL: B8 VL with I62V, A98G
notes: IgG
B13: hu7A4.v4 (antibody, V domains shown)
VH: B8 VH
VL: B8 VL with I62V, A98G
notes: IgG
B14: hu7A4.v6 (antibody, V domains shown)
VH: B8 VH with V72R
VL: B8 VL with A98G
notes: IgG
B15: hu7A4.v2 (antibody, V domains shown)
VH: B8 VH with V72R
VL: B8 VL with I62V, A98G
notes: IgG
B16: hu7A4.v3 (antibody, V domains shown)
VH: B8 VH with G24A
VL: B8 VL with I62V, A98G
notes: IgG
B17: hu15G11.v1 (antibody, V domains shown)
VH: EVQLVQSGAEVKKPGASVKVSCKASGYTFTSYWMHWVRQAPGQRLEWMGEINPTNGRTNYIEKFKSRVTITRDTSASTAYMELSSLRSEDTAVYYCARGTRAYHYWGQGTMVTVSS
VL: DIQMTQSPSSLSASVGDRVTITCRASDNLYSNLAWYQQKPGKAPKLLLYDATNLADGVPSRFSGSGSGTDYTLTISSLQPEDFATYYCQHFWGTPLTFGQGTKVEIK
notes: IgG; HC 48 M, 67 V, 69 I, 71 R, 73 T
B18: hu15G11.v3 (antibody, V domains shown)
VH: B17 VH
VL: B17 VL with A43S, L48V
notes: as for B17
B19: hu15G11.v2 (antibody, V domains shown)
VH: B17 VH with R72V
VL: B17 VL
notes: IgG; HC 48 M, 67 V, 69 I, 71 V, 73 T
B20: hu15G11.v4 (antibody, V domains shown)
VH: B17 VH with R72V
VL: B17 VL with A43S, L48V
notes: as for B19

target: T2, human BACE1 (R&D Systems) (human, UniProt P56817); assay: SPR (Biacore)
T2 construct: recombinant, commercial (R&D Systems)
T2 sequence (P56817 22-457 limits assumed): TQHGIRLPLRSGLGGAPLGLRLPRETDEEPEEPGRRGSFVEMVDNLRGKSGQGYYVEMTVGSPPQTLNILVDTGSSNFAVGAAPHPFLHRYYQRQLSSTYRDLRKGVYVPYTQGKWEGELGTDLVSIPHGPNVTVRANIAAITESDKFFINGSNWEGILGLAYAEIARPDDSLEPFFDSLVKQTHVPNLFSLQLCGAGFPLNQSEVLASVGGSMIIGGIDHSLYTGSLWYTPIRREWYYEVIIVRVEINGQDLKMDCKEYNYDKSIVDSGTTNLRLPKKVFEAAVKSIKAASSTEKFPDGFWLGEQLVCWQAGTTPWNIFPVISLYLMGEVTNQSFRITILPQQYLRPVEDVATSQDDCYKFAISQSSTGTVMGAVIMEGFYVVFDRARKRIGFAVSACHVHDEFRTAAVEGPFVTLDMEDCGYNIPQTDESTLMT

Row | Kd | Binder
1 | 1.94 nM | B1
2 | 0.72 nM | B2
3 | 13.3 nM | B3
4 | 14.5 nM | B4
5 | 6.04 nM | B5
6 | 2.82 nM | B6
7 | 7.31 nM | B7

target: murine BACE1 ECD; assay: cell-based or functional assay

Row | % inhibition of BACE1 activity, short FRET substrate | Binder
8 | 39% | B1
9 | 46% | B2
10 | 63% | B3
11 | -35% | B4
12 | -275% | B5
13 | 77% | B6
14 | -175% | B7

target: human BACE1 ECD; assay: cell-based or functional assay

Row | % inhibition of BACE1 activity, short FRET substrate | Binder
15 | 51% | B1
16 | 58% | B2
17 | 65% | B3
18 | -54% | B4
19 | -129% | B5
20 | 75% | B6
21 | -89% | B7

target: BACE1 in primary mouse cortical neurons (mouse, UniProt P56818 46-501); assay: cell-based or functional assay
Sequence (P56818 46-501): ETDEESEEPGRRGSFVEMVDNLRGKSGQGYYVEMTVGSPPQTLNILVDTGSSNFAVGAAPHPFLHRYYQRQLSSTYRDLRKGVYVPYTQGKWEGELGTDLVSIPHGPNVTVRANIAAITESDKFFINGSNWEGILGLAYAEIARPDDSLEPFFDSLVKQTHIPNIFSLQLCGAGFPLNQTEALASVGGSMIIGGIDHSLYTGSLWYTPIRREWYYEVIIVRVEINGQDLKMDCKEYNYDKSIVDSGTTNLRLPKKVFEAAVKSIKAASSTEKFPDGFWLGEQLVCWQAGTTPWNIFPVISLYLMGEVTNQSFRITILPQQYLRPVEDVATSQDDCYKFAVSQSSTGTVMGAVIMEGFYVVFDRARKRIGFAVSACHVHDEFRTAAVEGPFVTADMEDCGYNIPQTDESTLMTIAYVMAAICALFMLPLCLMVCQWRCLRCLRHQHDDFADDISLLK

Row | IC50, Abeta x-40 in mouse cortical neurons | maximal % inhibition of Abeta x-40 | Binder
22 | 8.33 nM | 72% | B3
23 | 46.7 nM | 74% | B4
24 | 9.11 nM | 82% | B5
25 | 27.1 nM | 73% | B6
26 | 7.11 nM | 84% | B7

target: T3, murine BACE1 ECD; assay: Octet, pH 7.5;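 note: antibodies captured on anti-human capture biosensor tips, dissociation followed in PBS with BSA buffer, kinetics fitted with a one-to-one binding model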
T3 construct: analyte of the Octet assay (200 nM) and enzyme of the first short substrate assay
T3 sequence (single chain, as listed by the source limits assumed): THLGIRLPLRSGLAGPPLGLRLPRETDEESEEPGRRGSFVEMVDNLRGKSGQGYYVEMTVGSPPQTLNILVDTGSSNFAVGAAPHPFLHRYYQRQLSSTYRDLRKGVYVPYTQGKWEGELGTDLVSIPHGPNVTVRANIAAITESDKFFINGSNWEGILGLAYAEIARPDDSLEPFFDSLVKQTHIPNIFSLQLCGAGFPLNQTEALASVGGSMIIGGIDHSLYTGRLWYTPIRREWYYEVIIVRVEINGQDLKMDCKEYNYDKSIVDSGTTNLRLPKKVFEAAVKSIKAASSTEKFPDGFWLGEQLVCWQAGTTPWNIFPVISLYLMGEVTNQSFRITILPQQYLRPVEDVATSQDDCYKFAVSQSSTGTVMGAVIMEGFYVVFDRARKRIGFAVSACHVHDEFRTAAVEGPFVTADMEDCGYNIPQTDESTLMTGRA

Row | Kd | Binder
27 | 22 nM | B1
28 | 9.7 nM | B2
29 | 17 nM | B3
30 | 94 nM | B4
31 | 6.6 nM | B5
32 | 2.5 nM | B6
33 | 5.4 nM | B7

target: T4, human BACE1 ECD; assay: Octet, pH 7.5;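 note: antibodies captured on anti-human capture biosensor tips, dissociation followed in PBS with BSA buffer, kinetics fitted with a one-to-one binding model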
T4 construct: analyte of the Octet assay (200 nM) and enzyme of the first short substrate assay; also called human BACE1 extracellular domain
T4 sequence (single chain, as listed by the source limits assumed): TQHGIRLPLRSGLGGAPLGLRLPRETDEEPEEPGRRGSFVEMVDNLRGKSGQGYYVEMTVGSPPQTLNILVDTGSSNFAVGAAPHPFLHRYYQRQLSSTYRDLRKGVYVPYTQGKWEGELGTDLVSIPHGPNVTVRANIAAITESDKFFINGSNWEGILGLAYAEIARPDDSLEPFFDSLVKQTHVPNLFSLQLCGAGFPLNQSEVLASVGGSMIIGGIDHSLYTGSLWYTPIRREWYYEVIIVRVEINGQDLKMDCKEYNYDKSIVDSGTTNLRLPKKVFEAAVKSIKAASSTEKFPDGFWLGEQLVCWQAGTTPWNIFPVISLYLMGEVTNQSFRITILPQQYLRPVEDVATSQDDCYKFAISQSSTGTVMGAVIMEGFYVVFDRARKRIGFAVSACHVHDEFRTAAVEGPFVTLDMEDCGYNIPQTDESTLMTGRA

Row | Kd | Binder
34 | 32 nM | B1
35 | 9.4 nM | B2
36 | 15 nM | B3
37 | 94 nM | B4
38 | 4.6 nM | B5
39 | 0.86 nM | B6
40 | 5 nM | B7

target: T5, human TfR extracellular domain with N-terminal His tag (human, UniProt P02786 89-760); assay: SPR, IgG;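 note: His-tagged TfR captured via immobilized anti-His antibody on a CM5 chip, antibody injected in 3-fold dilution series by single cycle kinetics, 1:1 Langmuir or steady-state fit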
T5 construct: Biotinylated in some assays; also called huTfR; HuTfR
T5 sequence (P02786 89-760 G142S): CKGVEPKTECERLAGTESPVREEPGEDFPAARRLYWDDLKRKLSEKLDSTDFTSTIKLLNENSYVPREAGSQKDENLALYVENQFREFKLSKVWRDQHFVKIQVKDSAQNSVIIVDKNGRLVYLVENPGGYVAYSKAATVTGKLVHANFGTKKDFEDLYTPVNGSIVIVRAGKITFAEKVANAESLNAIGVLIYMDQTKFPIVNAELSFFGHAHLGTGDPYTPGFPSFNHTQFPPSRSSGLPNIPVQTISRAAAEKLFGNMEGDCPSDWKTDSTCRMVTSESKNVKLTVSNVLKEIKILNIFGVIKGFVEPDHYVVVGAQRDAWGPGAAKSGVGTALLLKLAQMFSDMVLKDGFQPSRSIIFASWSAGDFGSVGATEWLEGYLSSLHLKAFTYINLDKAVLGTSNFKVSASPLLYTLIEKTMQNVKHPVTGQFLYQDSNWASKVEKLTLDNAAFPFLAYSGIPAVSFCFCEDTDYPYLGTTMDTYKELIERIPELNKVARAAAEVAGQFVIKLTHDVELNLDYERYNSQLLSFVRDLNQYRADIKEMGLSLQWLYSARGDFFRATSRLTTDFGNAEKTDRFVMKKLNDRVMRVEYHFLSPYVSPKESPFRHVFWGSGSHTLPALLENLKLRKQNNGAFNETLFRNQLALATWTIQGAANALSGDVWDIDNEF

Row | Kd | Binder
41 | 1.19 nM | B8
42 | 1.36 nM | B9
43 | 1.29 nM | B10
44 | 0.515 nM | B11

Target: T1, cyno TfR extracellular domain …
Assay: SPR, IgG;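 note: His-tagged TfR captured via immobilized anti-His antibody on a CM5 chip, antibody injected in 3-fold dilution series by single cycle kinetics, 1:1 Langmuir or steady-state fit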

Row | Kd | Binder
45 | 15.7 nM | B8
46 | 11.4 nM | B9
47 | 1.18 nM | B11

target: BACE1 (HTRF long substrate and FRET short substrate assays of Example 9D); assay: cell-based or functional assay

Row | EC50, FRET short substrate | EC50, HTRF long substrate | Binder
48 | 1.99 nM | 4.9 nM | B1
49 | 0.703 nM | 1.67 nM | B2
50 | 8.47 nM | 8.75 nM | B3
51 | 36.8 nM | 720 nM | B4
52 | 0.607 nM | 5.93 nM | B5
53 | 15.9 nM | 1.28 nM | B6
54 | 0.417 nM | 5.06 nM | B7

target: T3, murine BACE1 ECD; assay: Octet, pH 5.0

Row | Kd | Binder
55 | 120 nM | B1
56 | 43 nM | B2
57 | 11 nM | B3
58 | 180 nM | B4
59 | 11 nM | B5
60 | 2 nM | B6
61 | 8.4 nM | B7

target: T4, human BACE1 ECD; assay: Octet, pH 5.0

Row | Kd | Binder
62 | 50 nM | B1
63 | 31 nM | B2
64 | 12 nM | B3
65 | 120 nM | B4
66 | 8.7 nM | B5
67 | 1.5 nM | B6
68 | 8.2 nM | B7

target: T5, human TfR extracellular domain with …; assay: SPR, IgG; remark: another data set of the same source;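 note: His-tagged TfR captured via immobilized anti-His antibody on a CM5 chip, antibody injected in 3-fold dilution series by single cycle kinetics, 1:1 Langmuir or steady-state fit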

Row | Kd | Binder
69 | 0.279 nM | B12
70 | 0.612 nM | B13
71 | 0.26 nM | B14
72 | 0.232 nM | B15
73 | 0.543 nM | B16
74 | 5.12 nM | B17
75 | 4.12 nM | B18
76 | 9.35 nM | B19
77 | 3.89 nM | B20

Target: T1, cyno TfR extracellular domain …
Assay: SPR, IgG;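 note: His-tagged TfR captured via immobilized anti-His antibody on a CM5 chip, antibody injected in 3-fold dilution series by single cycle kinetics, 1:1 Langmuir or steady-state fit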
Remark: another data set of the same source

Row | Kd | Binder
78 | 1.67 nM | B12
79 | 3.83 nM | B13
80 | 1.06 nM | B14
81 | 1.22 nM | B15
82 | 2.9 nM | B16
83 | 10.1 nM | B17
84 | 5.34 nM | B18
85 | 17.6 nM | B19
86 | 7.04 nM | B20
